Measured values reported in PMC12295313 (2025).

T1: FGFR1c ectodomain (extracellular ligand-binding domain of FGFR1c), P11362
T1 chain: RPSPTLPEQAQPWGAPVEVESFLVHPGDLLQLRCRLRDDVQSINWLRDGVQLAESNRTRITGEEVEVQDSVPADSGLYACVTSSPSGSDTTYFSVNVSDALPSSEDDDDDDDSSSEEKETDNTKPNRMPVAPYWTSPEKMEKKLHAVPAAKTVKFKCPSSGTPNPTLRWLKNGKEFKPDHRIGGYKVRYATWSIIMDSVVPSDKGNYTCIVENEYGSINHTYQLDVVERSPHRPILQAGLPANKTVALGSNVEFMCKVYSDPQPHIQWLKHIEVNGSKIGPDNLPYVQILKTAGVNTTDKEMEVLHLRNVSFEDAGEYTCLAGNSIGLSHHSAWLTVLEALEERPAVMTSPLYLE

T2: FGFR1c ectodomain (extracellular ligand-binding domain of FGFR1c) (UniProt P11362 22-376)
T2 chain: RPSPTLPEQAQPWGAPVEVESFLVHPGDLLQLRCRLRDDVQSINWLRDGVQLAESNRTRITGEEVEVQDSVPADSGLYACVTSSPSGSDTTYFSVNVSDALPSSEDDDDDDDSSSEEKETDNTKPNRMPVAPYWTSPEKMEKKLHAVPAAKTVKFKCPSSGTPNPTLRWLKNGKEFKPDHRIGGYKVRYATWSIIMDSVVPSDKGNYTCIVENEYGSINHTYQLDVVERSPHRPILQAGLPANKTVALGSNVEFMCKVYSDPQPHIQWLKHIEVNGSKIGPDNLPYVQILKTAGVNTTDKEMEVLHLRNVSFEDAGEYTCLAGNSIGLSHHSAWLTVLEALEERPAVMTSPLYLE


Columns and labels:
[1] = target: T1, FGFR1c ectodomain (extracellular …); experiment: SPR; details: chains chain, remark: other sources report otherwise
[2] = target: T2, FGFR1c ectodomain (extracellular …); experiment: SPR

Kd [1] [µM] | Kd [2] [µM] | Binder
7.96 | – | Recombinant human wild-type FGF21 (His29-Ser209), Q9NSA1 29-209 (protein) HPIPDSSPLLQFGGQVRQRYLYTDDAQQTEAHLEIREDGTVGGAADQSPESLLQLKALKPGVIQILGVKTSRFLCQRPDGALYGSLHFDPEACSFRELLLEDGYNVYQSEAHGLPLHLPGNKSPHRDPAPRGPARFLPLPGLPPALPEPPGILAPQPPDVGSSDPLSMVGPSQGRSPSYAS
– | 3.94 | FGF21^D2D3 (FGF21 with its R96–V106 region replaced by the L101–T111 segment of FGF1) (ligand) HPIPDSSPLLQFGGQVRQRYLYTDDAQQTEAHLEIREDGTVGGAADQSPESLLQLKALKPGVIQILGVKTSRFLCQRPDGALYGSLHFDPEACSFLERLEENHYNTYQSEAHGLPLHLPGNKSPHRDPAPRGPARFLPLPGLPPALPEPPGILAPQPPDVGSSDPLSMVGPSQGRSPSYAS
